Assay results as given in patent US20240251767A1 (LEVERAGEN, published 2024).
Where two headings read alike, the source gives them in different places.

B1: M2S521_378 Nb-human Fc fusion (Fc fusion, not shown: a dimerising Fc or GST)
VH: EVQLQQSGPELVKPGASVKISCKASGYTFTDYYMKWVKQSHGKSLEWIGDINPKNGGTNYNQKFKDKATLTVDKSSSTAYMELRSLTSEDSAVYYCARLEDGYYGYAIDYWSQGTSVTVSS
notes: also called LVGN-S231378; LVGN-S521378
B2: MS329_5 Nb-human Fc fusion (Fc fusion, not shown: a dimerising Fc or GST)
VH: EVQLQQSGPELVKPGASVKMSCKASGYTFTDYYIKWEKQSHGKSLEWIGDINPKNGETFYNQQFKGKATLTVDKSSSTAYMQLNSLTSEDSAVYYCARKEYGDYGYAVDYWGQGTSVTVSS
notes: also called LVGN-S3205; LVGN-53205

Tests used:
[1] = target: T1, SARS-Cov2 Spike Active Trimer SAT (R&D Systems; Catalog No. 10549-CV) (SARS-CoV2, UniProt P0DTC2 16-1211); assay: ELISA, serially diluted purified Nb-Fc on SAT antigen
T1 construct: also called SARS-CoV2 Spike Active Trimer protein; recombinant SAT protein

[2] = target: T1, SARS-Cov2 Spike Active Trimer SAT (R&D …)
[3] = target: T1, SARS-Cov2 Spike Active Trimer SAT (R&D …); assay: SPR (Carterra)
[4] = target: T1, SARS-Cov2 Spike Active Trimer SAT (R&D …)

Binder	EC50 [1] [nM]	Kd [2] [nM]	Kd [3] [nM]	Kd [4] [nM]	koff [4] [s⁻¹]	kon [4] [M⁻¹ s⁻¹]
B1	0.081	–	–	–	–	–
B2	0.024	1.21	3.17	1.06	0.000143	135000
